Experiments:
[1] = tested on: HeLa Kyoto; assay: solubility in G1/S (NP-40 vs SDS abundance) (log2 ratio); higher = more soluble; details: cell cycle stage: G1/S
[2] = tested on: HeLa Kyoto; assay: solubility change mitosis vs G1/S (difference of NP-40 vs SDS log2 ratios) (log2 ratio difference); higher = more soluble in mitosis
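Wherever solubility change mitosis vs G1/S (difference of NP-40 vs SDS log2 ratios) is given: synchronized HeLa Kyoto cells (double thymidine block for G1/S, nocodazole release for mitosis), protein amounts in NP-40 versus SDS lysates quantified by mass spectrometry, three biological replicates.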
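Wherever solubility in G1/S (NP-40 vs SDS abundance) is given: HeLa Kyoto cells arrested at G1/S by double thymidine block, proteins quantified by TMT10plex mass spectrometry in mild NP-40 versus SDS extracts, three biological replicates.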

Sequence of CMC2 (chain, as listed by the source): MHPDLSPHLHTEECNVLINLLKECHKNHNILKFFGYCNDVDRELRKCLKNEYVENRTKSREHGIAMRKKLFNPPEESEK

Row | Substance | solubility in G1/S (log2) [1] | solubility change mitosis (log2) [2]
1 | MAKFGVHRILLLAISLTKCLESTKLLADLKKCGDLECEALINRVSAMRDYRGPDCRYLNFTKGEEISVYVKLAGEREDLWAGSKGKEFGYFPRDAVQIEEVFISEEIQMSTKESDFLCLLGVSYTFDNEDSELNGDYGENIYPYEEDKDEKSSIYESDFQIEPGFYATYESTLFEDQVPALEAPEDIGSTSESKDWEEVVVESMEQDRIPEVHVPPSSAVSGVKEWFGLGGEQAEEKAFESVIEPVQESSFRSRKIAVEDENDLEELNNGEPQTEHQQESESEIDSVPKTQSELASESEHIPKPQSTGWFGGGFTSYLGFGDEDTGLELIAEESNPPLQDFPNSISSDKEATVPCTEILTEKKDTITNDSLSLKPSWFDFGFAILGFAYAKEDKIMLDDRKNEEDGGADEHEHPLTSELDPEKEQEIETIKIIETEDQIDKKPVSEKTDESDTIPYLKKFLYNFDNPWNFQNIPKETELPFPKQILDQNNVIENEETGEFSIDNYPTDNTKVMIFKSSYSLSDMVSNIELPTRIHEEVYFEPSSSKDSDENSKPSVDTEGPALVEIDRSVENTLLNSQMVSTDNSLSSQNYISQKEDASEFQILKYLFQIDVYDFMNSAFSPIVILTERVVAALPEGMRPDSNLYGFPWELVICAAVVGFFAVLFFLWRSFRSVRSRLYVGREKKLALMLSGLIEEKSKLLEKFSLVQKEYEGYEVESSLKDASFEKEATEAQSLEATCEKLNRSNSELEDEILCLEKELKEEKSKHSEQDELMADISKRIQSLEDESKSLKSQVAEAKMTFKIFQMNEERLKIAIKDALNENSQLQESQKQLLQEAEVWKEQVSELNKQKVTFEDSKVHAEQVLNDKESHIKTLTERLLKMKDWAAMLGEDITDDDNLELEMNSESENGAYLDNPPKGALKKLIHAAKLNASLKTLEGERNQIYIQLSEVDKTKEELTEHIKNLQTEQASLQSENTHFENENQKLQQKLKVMTELYQENEMKLHRKLTVEENYRLEKEEKLSKVDEKISHATEELETYRKRAKDLEEELERTIHSYQGQIISHEKKAHDNWLAARNAERNLNDLRKENAHNRQKLTETELKFELLEKDPYALDVPNTAFGREHSPYGPSPLGWPSSETRAFLSPPTLLEGPLRLSPLLPGGGGRGSRGPGNPLDHQITNERGESSCDRLTDPHRAPSDTGSLSPPWDQDRRMMFPPPGQSYPDSALPPQRQDRFCSNSGRLSGPAELRSFNMPSLDKMDGSMPSEMESSRNDTKDDLGNLNVPDSSLPAENEATGPGFVPPPLAPIRGPLFPVDARGPFLRRGPPFPPPPPGAMFGASRDYFPPGDFPGPPPAPFAMRNVYPPRGFPPYLPPRPGFFPPPPHSEGRSEFPSGLIPPSNEPATEHPEPQQET [CTAGE5] | -0.0196 | 0.181
2 | CMC2 | 0.229 | 0.0296
3 | MASVSSATFSGHGARSLLQFLRLVGQLKRVPRTGWVYRNVQRPESVSDHMYRMAVMAMVIKDDRLNKDRCVRLALVHDMAECIVGDIAPADNIPKEEKHRREEEAMKQITQLLPEDLRKELYELWEEYETQSSAEAKFVKQLDQCEMILQASEYEDLEHKPGRLQDFYDSTAGKFNHPEIVQLVSELEAERSTNIAAAASEPHS [HDDC2] | 0.452 | 0.118
4 | MDKNIGEQLNKAYEAFRQACMDRDSAVKELQQKTENYEQRIREQQEQLSLQQTIIDKLKSQLLLVNSTQDNNYGCVPLLEDSETRKNNLTLDQPQDKVISGIAREKLPKVRRQEVSSPRKETSARSLGSPLLHERGNIEKTFWDLKEEFHKICMLAKAQKDHLSKLNIPDTATETQCSVPIQCTDKTDKQEALFKPQAKDDINRGAPSITSVTPRGLCRDEEDTSFESLSKFNVKFPPMDNDSTFLHSTPERPGILSPATSEAVCQEKFNMEFRDNPGNFVKTEETLFEIQGIDPIASAIQNLKTTDKTKPSNLVNTCIRTTLDRAACLPPGDHNALYVNSFPLLDPSDAPFPSLDSPGKAIRGPQQPIWKPFPNQDSDSVVLSGTDSELHIPRVCEFCQAVFPPSITSRGDFLRHLNSHFNGET [TANK] | -0.138 | -0.0338
5 | MRFMTLLFLTALAGALVCAYDPEAASAPGSGNPCHEASAAQKENAGEDPGLARQAPKPRKQRSSLLEKGLDGAKKAVGGLGKLGKDAVEDLESVGKGAVHDVKDVLDSVL [DCD] | -1.49 | 1.24
6 | HEATR5A | -0.0946 | -0.116
7 | MVPGARGGGALARAAGRGLLALLLAVSAPLRLQAEELGDGCGHLVTYQDSGTMTSKNYPGTYPNHTVCEKTITVPKGKRLILRLGDLDIESQTCASDYLLFTSSSDQYGPYCGSMTVPKELLLNTSEVTVRFESGSHISGRGFLLTYASSDHPDLITCLERASHYLKTEYSKFCPAGCRDVAGDISGNMVDGYRDTSLLCKAAIHAGIIADELGGQISVLQRKGISRYEGILANGVLSRDGSLSDKRFLFTSNGCSRSLSFEPDGQIRASSSWQSVNESGDQVHWSPGQARLQDQGPSWASGDSSNNHKPREWLEIDLGEKKKITGIRTTGSTQSNFNFYVKSFVMNFKNNNSKWKTYKGIVNNEEKVFQGNSNFRDPVQNNFIPPIVARYVRVVPQTWHQRIALKVELIGCQITQGNDSLVWRKTSQSTSVSTKKEDETITRPIPSEETSTGINITTVAIPLVLLVVLVFAGMGIFAAFRKKKKKGSPYGSAEAQKTDCWKQIKYPFARHQSAEFTISYDNEKEMTQKLDLITSDMADYQQPLMIGTGTVTRKGSTFRPMDTDAEEAGVSTDAGGHYDCPQRAGRHEYALPLAPPEPEYATPIVERHVLRAHTFSAQSGYRVPGPQPGHKHSLSSGGFSPVAGVGAQDGDYQRPHSAQPADRGYDRPKAVSALATESGHPDSQKPPTHPGTSDSYSAPRDCLTPLNQTAMTALL [DCBLD1] | 0.0249 | -0.0211
8 | MDWKEVLRRRLATPNTCPNKKKSEQELKDEEMDLFTKYYSEWKGGRKNTNEFYKTIPRFYYRLPAEDEVLLQKLREESRAVFLQRKSRELLDNEELQNLWFLLDKHQTPPMIGEEAMINYENFLKVGEKAGAKCKQFFTAKVFAKLLHTDSYGRISIMQFFNYVMRKVWLHQTRIGLSLYDVAGQGYLRESDLENYILELIPTLPQLDGLEKSFYSFYVCTAVRKFFFFLDPLRTGKIKIQDILACSFLDDLLELRDEELSKESQETNWFSAPSALRVYGQYLNLDKDHNGMLSKEELSRYGTATMTNVFLDRVFQECLTYDGEMDYKTYLDFVLALENRKEPAALQYIFKLLDIENKGYLNVFSLNYFFRAIQELMKIHGQDPVSFQDVKDEIFDMVKPKDPLKISLQDLINSNQGDTVTTILIDLNGFWTYENREALVANDSENSADLDDT [C14ORF10] | -0.0201 | -0.0757
9 | MEVEAAEARSPAPGYKRSGRRYKCLSCTKTFPNAPRAARHAATHGPADCSEEVAEVKPKPETEAKAEEASGEKVSGSAAKPRPYACPLCPKAYKTAPELRSHGRSHTGEKPFPCPECGRRFMQPVCLRVHLASHAGELPFRCAHCPKAYGALSKLKIHQRGHTGERPYACADCGKSFADPSVFRKHRRTHAGLRPYSCERCGKAYAELKDLRNHERSHTGERPFLCSECGKSFSRSSSLTCHQRIHAAQKPYRCPACGKGFTQLSSYQSHERTHSGEKPFLCPRCGRMFSDPSSFRRHQRAHEGVKPYHCEKCGKDFRQPADLAMHRRVHTGDRPFKCLQCDKTFVASWDLKRHALVHSGQRPFRCEECGRAFAERASLTKHSRVHSGERPFHCNACGKSFVVSSSLRKHERTHRSSEAAGVPPAQELVVGLALPVGVAGESSAAPAAGAGLGDPPAGLLGLPPESGGVMATQWQVVGMTVEHVECQDAGVREAPGPLEGAGEAGGEEADEKPPQFVCRECKETFSTMTLLRRHERSHPELRPFPCTQCGKSFSDRAGLRKHSRTHSSVRPYTCPHCPKAFLSASDLRKHERTHPVPMGTPTPLEPLVALLGMPEEGPA [ZNF668] | -0.985 | 0.453
10 | SYNJ2 | -0.61 | 0.309
11 | MALRSAQGDGPTSGHWDGGAEKADFNAKRKKKVAEIHQALNSDPTDVAALRRMAISEGGLLTDEIRRKVWPKLLNVNANDPPPISGKNLRQMSKDYQQVLLDVRRSLRRFPPGMPEEQREGLQEELIDIILLILERNPQLHYYQGYHDIVVTFLLVVGERLATSLVEKLSTHHLRDFMDPTMDNTKHILNYLMPIIDQVNPELHDFMQSAEVGTIFALSWLITWFGHVLSDFRHVVRLYDFFLACHPLMPIYFAAVIVLYREQEVLDCDCDMASVHHLLSQIPQDLPYETLISRAGDLFVQFPPSELAREAAAQQQAERTAASTFKDFELASAQQRPDMVLRQRFRGLLRPEDRTKDVLTKPRTNRFVKLAVMGLTVALGAAALAVVKSALEWAPKFQLQLFP [TBC1D20] | -0.427 | -0.0896
12 | MGDDRPFVCNAPGCGQRFTNEDHLAVHKHKHEMTLKFGPARTDSVIIADQTPTPTRFLKNCEEVGLFNELASSFEHEFKKAADEDEKKAAAGPLDMSLPSTPDIKIKEEEPVEVDSSPPDSPASSPCSPPLKEKEVTPKPVLISTPTPTIVRPGSLPLHLGYDPLHPTLPSPTSVITQAPPSNRQMGSPTGSLPLVMHLANGQTMPVLPGPPVQMPSVISLARPVSMVPNIPGIPGPPVNSSGSISPSGHPIPSEAKMRLKATLTHQVSSINGGCGMVVGTASTMVTARPEQSQILIQHPDAPSPAQPQVSPAQPTPSTGGRRRRTVDEDPDERRQRFLERNRAAASRCRQKRKLWVSSLEKKAEELTSQNIQLSNEVTLLRNEVAQLKQLLLAHKDCPVTALQKKTQGYLESPKESSEPTGSPAPVIQHSSATAPSNGLSVRSAAEAVATSVLTQMASQRTELSMPIQSHVIMTPQSQSAGR [ATF7] | 0.504 | 0.0933
13 | MSLALRSELVVDKTKRKKRRELSEEQKQEIKDAFELFDTDKDEAIDYHELKVAMRALGFDVKKADVLKILKDYDREATGKITFEDFNEVVTDWILERDPHEEILKAFKLFDDDDSGKISLRNLRRVARELGENMSDEELRAMIEEFDKDGDGEINQEEFIAIMTGDI [CETN3] | 0.133 | 0.0873

— the supplement of paper PMC5998384
